Six molecules from publication PMC4860851 (Cell Discovery, 2015) can be followed below.

The target in data set [1] is Recombinant H1 HA with His Tag from Influenza A/Brisbane/59/2007 H1N1. Put plainly: SPR. The settings on record: read off a plot.
Data set [2] can be described thus: full-length expression in HEK 293T (data not shown). The settings on record: glycan lost; control: WT full-length Ncr1.
Data set [3] in a line: FACS surface staining of BW transfectants. Particulars: glycan lost; control: WT Ncr1 zeta.
Data set [4] in a line: recognition of fusion proteins by eight anti-Ncr1 mAbs. The settings on record: glycan lost; control: WT Ncr1 Ig.
Data set [5] can be described thus: FACS, lentiviral expression in IL2-activated human NK cells. The settings on record: glycan lost; control: WT full-length Ncr1. (Flow cytometry measures light scatter and fluorescence of single cells or particles in a stream.)
The target in data set [6] is T1, HA Ig (extracellular part of the HA protein of PR8 influenza fused to human IgG1), biotin-conjugated (influenza A/Puerto Rico/8/34 H1N1 (PR8), UniProt P03452 18-528, biotin).
T1 construct: also called biotinylated HA Ig
Put plainly: far-Western, overlay or dot blot. The settings on record: both partners purified.

Regarding “Ncr1 Ig fusion protein (extracellular part of mouse Ncr1 fused to human IgG1) (from UniProt Q8C567) T222A; T225A”, the response in data set [1] (parent: est. 190) came out at 35 RU; in data set [1] (parent: est. 380), 85 RU; in data set [1] (parent: est. 560), 150 RU; in data set [1] (parent: est. 700) it was 210 RU.

B1: Ncr1: Ncr1 T222A (protein)
parent chain: MLPTLTALLCLGLCLSQRINTEKETLPKPIIWAKPSIMVTNGNSVNIWCQGAQSASEYQLYFEGSFFALERPKPSRSMNKVRFFISQMTSHTAGIYTCFYQSGELWSKSSNPLKLVVTGLYDTPNLWVYPRPEVTLGENVTFFCQLKTATSKFFLLKERGSNHIQNKYGNIQAEFPMGPVTRAHRGTYRCFGSYNDYAWSFPSEPVTLLITGGVENSSLAPTDPTSSLDYWEFDLSTNESGLQKDSAFWDHTTQNLIRIGLACIILITLVWLLTEDWLSKRKDHEEANRLTNWECRRRWRMQHYFEEEQRNAISMMELKATPGAL
Take B1: the localisation_or_trafficking entry in data set [2] was “no change”. Moreover, the expression_or_secretion entry in data set [3] was “no change”. Moreover, the stability_or_folding entry in data set [4] is on record as “no change”.

B2: Ncr1: Ncr1 T225A (protein)
parent chain: B1 parent chain
Regarding B2, the localisation_or_trafficking result in data set [2] is listed as “no change”. Moreover, in data set [3], the expression_or_secretion entry is listed as “no change”. Besides, the stability_or_folding entry in data set [4] is listed as “no change”.

B3: Ncr1: Ncr1 N139 216 238A (protein)
parent chain: B1 parent chain
B3: the localisation_or_trafficking result in data set [2] is recorded as “decreases”. Besides, the expression_or_secretion result in data set [3] is reported as “decreases”; in data set [5], “abolishes”. Further, in data set [4], the stability_or_folding entry was “no change”.

B4: Ncr1: Ncr1 T222 225A (protein)
parent chain: B1 parent chain
In the case of B4, the localisation_or_trafficking result in data set [2] is “no change”. The expression_or_secretion result in data set [3] and in data set [5] was “no change” in each case. Further, the stability_or_folding result in data set [4] is “no change”.

B5: Ncr1 Ig fusion protein (extracellular part of mouse Ncr1 fused to human IgG1) (Fc fusion, UniProt Q8C567 17-255, looked up)
chain: QRINTEKETLPKPIIWAKPSIMVTNGNSVNIWCQGAQSASEYQLYFEGSFFALERPKPSRSMNKVRFFISQMTSHTAGIYTCFYQSGELWSKSSNPLKLVVTGLYDTPNLWVYPRPEVTLGENVTFFCQLKTATSKFFLLKERGSNHIQNKYGNIQAEFPMGPVTRAHRGTYRCFGSYNDYAWSFPSEPVTLLITGGVENSSLAPTDPTSSLDYWEFDLSTNESGLQKDSAFWDHTTQN
notes: Carries N-linked glycans (N139, N216, N238) and putative O-linked glycans (T222, T225); also called WT Ncr1 Ig; WT Ncr1
Take B5: the binding result in data set [6] is recorded as “binds”.
